Experimental data from patent US8591913B2, “Methods of decreasing adipose tissue” (Toru Miyazaki, priority 2009, dated 2013).
Entries after “also recorded” stand apart in the source; their conditions may differ.

Tests used:
FAS [1] = target: T1, FAS (Mus musculus, UniProt P19096); test: FAS enzyme activity in lysates of loaded 3T3-L1 cells (malonyl-CoA consumption); type: cell-based; settings: C75 25 μM versus AIM 5 μg/mL, schedules (d) and (f)
T1 construct: cell lysates were prepared, and the enzyme activity of FAS was measured; endogenous in cells; host or cells: 3T3-L1 cells (differentiating or differentiated)
Description: Whether AIM affected an enzyme activity of FAS or not was examined.
In addition, as a schedule (f) similar to the above-mentioned schedule (e), AIM was loaded for 4 days (day 8 to day 12) after the 3T3-L1 cells differentiated, subsequently the cells were collected on the 10th day (day 12) after the initiation of the differentiation induction, cell lysates were prepared, and the enzyme activity of FAS was measured. The enzyme activity of FAS was measured based on a consumption amount of malonyl-CoA.
(§1) In addition, using a FAS inhibitor (C75) in place of AIM, the FAS inhibitor at a concentration of 25 μM was loaded according to the schedules (d) and (f), and as was the case with the above-mentioned AIM, the cells were collected on the 2nd day (day 4: schedule (d)) and 10th day (day 12: schedule (f)) after the initiation of the differentiation induction, and the enzyme activity of FAS was measured.
Further, for comparison, the cells cultured without loading AIM in the above-mentioned schedule (a) were also collected at times of the 2nd day (day 4) and 10th day (day 12) after the initiation of the differentiation induction, and the enzyme activity of FAS was measured.
FIG. 11B and FIG. 11C illustrate the results of measuring the FAS enzyme activity (Fatty acid synthase activity) (nmol NADPH/min/mg protein). FIG. 11B illustrates the results obtained on the 2nd day (day 4) after the initiation of the differentiation induction in the case of loading no AIM according to the schedule (a) (None), the case of loading AIM according to the schedule (d) (AIM (5 μg/mL)), and the case of loading the FAS inhibitor according to the schedule (d) (C75 (25 μM)). FIG. 11C illustrates the results obtained on the 10th day (day 12) after the initiation of the differentiation induction in the case of loading no AIM according to the schedule (a) (None), the case of loading AIM according to the schedule (f) (AIM (5 μg/mL)), and the case of loading the FAS inhibitor according to the schedule (f) (C75 (25 μM)).

mice = settings: administration of C75 to mice, reported; cited from earlier work
3T3-L1 preadipocytes = test: Differentiation of 3T3-L1 preadipocytes into mature adipocytes, oil-red-o staining; type: cell-based, mouse; settings: mouse AIM and human AIM compared, in vitro
Description: In order to examine how AIM produced by the macrophages infiltrating the adipose tissues works on surrounding adipocytes, an experiment in which AIM was loaded during a culture process of differentiating 3T3-L1 preadipocytes into the mature adipocytes was performed.
A recombinant mouse AIM protein and a recombinant human AIM protein were used as AIM. Those recombinant AIM proteins were prepared by culturing human-derived HEK293T cells transfected with a vector expressing mouse AIM or human AIM and isolating and purifying the protein from its culture supernatant. The same recombinant AIM proteins were also used as AIM in other examples shown below. AIM was loaded by adding AIM at a concentration of 5 μg/mL to the culture medium.
Differentiation induction (Induction) of the 3T3-L1 cells was initiated by first culturing the 3T3-L1 cells for 4 days (day −2 to day 2) to proliferate the cells (Cell proliferation) and subsequently culturing the cells in a culture medium containing insulin, dexamethasone (DEX), and isobutylmethylxanthine (IBMX) for 2 days (day 2 to day 4). The differentiation induction was further continued by culturing the cells in a culture medium containing insulin for 2 days (day 4 to day 6).
After the period of the differentiation induction (day 2 to day 6), the culture was continued in a culture medium not containing those differentiation-inducing factors. Then, the cells on the 10th day (day 12) after the initiation of the stimuli for differentiation induction were stained with oil-red-o, and the differentiation of the 3T3-L1 cells to mature adipocytes was observed.
as §1
FIG. 12A and FIG. 12B show the results of staining the cells with oil-red-o and analyzing the gene expression by RT-PCR on the 2nd day (day 4) after the initiation of the differentiation induction in the case of loading no AIM according to the schedule (a) (None), the case of loading AIM according to the schedule (d) (AIM (5 μg/mL)), and the case of loading the FAS inhibitor according to the schedule (d) (C75 (25 μM)), respectively.

[2] = test system: mature adipocytes (differentiated 3T3-L1 cells); test: Induction of lipolysis in mature 3T3-L1 adipocytes (lipid droplets, glycerol and free fatty acid efflux); type: cell-based, mouse; settings: mouse AIM and human AIM compared, same range of concentrations in vitro
Description: The effect of AIM on mature adipocytes was examined.
Then, the cells on the 10th day (day 12) after the initiation of the stimuli for differentiation induction were stained with oil-red-o. The number of cells having lipid droplets was counted. Further, the diameter of lipid droplets was measured in the cells having lipid droplets. For comparison, the number of the cells was counted and the diameter of lipid droplets was measured for the cells cultured in the above-mentioned schedules (a) and (d).
Further, the supernatant of the culture medium after the cells were cultured while loading AIM according to the schedule (e) was collected, and amounts of glycerol and free fatty acid (FFA) contained in the supernatant were measured by ELISA. For the comparison, the amounts of glycerol and free fatty acid in the culture supernatant obtained according to the schedule (a) were also measured.
In order to avoid adsorption of free fatty acid to albumin contained in the culture medium, the culture medium supplemented with 10% FBS (fetal bovine serum) was exchanged to a serum-free culture medium on the 10th day (day 12) after the initiation of the differentiation induction, further the cells were cultured in the serum-free culture medium for 6 hours, and subsequently the amounts of glycerol and free fatty acid contained in the supernatant of the serum-free culture medium were measured.
FIG. 7A and FIG. 7B illustrate the evaluation results of the number (per 10^4 μm^2) of cells having lipid droplets (Droplet (+) cells) and the relative diameter of lipid droplets (%) obtained according to the schedules (a), (d), and (e) (Exp. a, d, and e), respectively. The relative diameter of lipid droplets illustrated in FIG. 7B was calculated by defining the diameter of lipid droplets in the cells obtained according to the schedule (a) without AIM loading as 100%. FIG. 8A and FIG. 8B illustrate the concentration of glycerol (Glycerol Efflux, mM) and the concentration of free fatty acid (FFA Efflux, ×10 mM) in the culture medium obtained according to the schedules (a) and (e) (Exp. a and e), respectively.
In addition, FIG. 13A and FIG. 13B illustrate the results of measuring the glycerol concentration (glycerol efflux, mM) and the free fatty acid concentration (FFA efflux, ×10 mM) in the culture medium on the 10th day (day 12) after the initiation of the differentiation induction in the case of loading no AIM according to the schedule (a) (None), the case of loading AIM according to the schedule (f) (AIM), and the case of loading the FAS inhibitor according to the schedule (f) (C75), respectively.

[3] = test system: human mesenchymal stem cells (HMSCs); test: Adipogenesis of human mesenchymal stem cells (HMSCs) with rhAIM; type: cell-based
Description: In order to confirm that AIM also acts upon adipogenesis in human cells, the differentiation of human mesenchymal stem cells (HMSCs) (Lonza Walkersville Inc., USA) was stimulated in the presence or absence of recombinant human AIM (rhAIM).
That is, HMSCs were cultured in a mesenchymal stem cell basal medium (MSCBM) (Lonza Walkersville Inc.) for 10 days until the cells became confluent. Subsequently, the adipogenesis of the cells was stimulated by culturing the cells in the presence or absence of rhAIM (10 μg/mL) together with human insulin, MCGS, dexamethasone, indomethacin, and IBMX for 3 days (adipogenesis induction) (reference: Janderrova et al., Obes. Res., 11: 65, 2003). After the stimulation, the cells were cultured in MSCBM in which human insulin and MCGS had been added for an additional 10 days. Then, the cells were collected and stained with oil-red-o.
FIG. 36A, FIG. 36B, and FIG. 36C show the results of observing the cells before the stimulation of adipogenesis (Pre-stimulation), after the stimulation in the absence of rhAIM (rhAIM (−)), and after the stimulation in the presence of 10 μg/mL rhAIM (rhAIM (10 μg/mL)) under the phase contrast microscope, respectively.

FAS [4] = target: T2, FAS (Homo sapiens, UniProt P49327); test: Co-immunoprecipitation of HA-tagged AIM and FLAG-tagged FAS in HEK293T cells; type: binding; settings: HEK293T cells co-expressing HA-tagged mouse AIM and FLAG-tagged FAS, anti-FLAG or anti-HA antibody
T2 construct: expressed in transfected cells; host or cells: HEK293T
Description: Thus, in order to confirm the fact, first, HEK293T cells which co-expressed both AIM (mouse AIM) fused with an HA-tag and FAS fused with a FLAG-tag were produced. Also, the HEK293T cells were collected after being cultured for a predetermined period of time, its cell lysate was prepared, and an immunoprecipitation was performed using an anti-FLAG antibody.
In addition, a co-immunoprecipitation study was performed using HEK293T cells which express both FAS tagged with FLAG and mouse AIM tagged with HA, and an anti-FLAG antibody or an anti-HA antibody.

T2 sequence (P49327 whole entry): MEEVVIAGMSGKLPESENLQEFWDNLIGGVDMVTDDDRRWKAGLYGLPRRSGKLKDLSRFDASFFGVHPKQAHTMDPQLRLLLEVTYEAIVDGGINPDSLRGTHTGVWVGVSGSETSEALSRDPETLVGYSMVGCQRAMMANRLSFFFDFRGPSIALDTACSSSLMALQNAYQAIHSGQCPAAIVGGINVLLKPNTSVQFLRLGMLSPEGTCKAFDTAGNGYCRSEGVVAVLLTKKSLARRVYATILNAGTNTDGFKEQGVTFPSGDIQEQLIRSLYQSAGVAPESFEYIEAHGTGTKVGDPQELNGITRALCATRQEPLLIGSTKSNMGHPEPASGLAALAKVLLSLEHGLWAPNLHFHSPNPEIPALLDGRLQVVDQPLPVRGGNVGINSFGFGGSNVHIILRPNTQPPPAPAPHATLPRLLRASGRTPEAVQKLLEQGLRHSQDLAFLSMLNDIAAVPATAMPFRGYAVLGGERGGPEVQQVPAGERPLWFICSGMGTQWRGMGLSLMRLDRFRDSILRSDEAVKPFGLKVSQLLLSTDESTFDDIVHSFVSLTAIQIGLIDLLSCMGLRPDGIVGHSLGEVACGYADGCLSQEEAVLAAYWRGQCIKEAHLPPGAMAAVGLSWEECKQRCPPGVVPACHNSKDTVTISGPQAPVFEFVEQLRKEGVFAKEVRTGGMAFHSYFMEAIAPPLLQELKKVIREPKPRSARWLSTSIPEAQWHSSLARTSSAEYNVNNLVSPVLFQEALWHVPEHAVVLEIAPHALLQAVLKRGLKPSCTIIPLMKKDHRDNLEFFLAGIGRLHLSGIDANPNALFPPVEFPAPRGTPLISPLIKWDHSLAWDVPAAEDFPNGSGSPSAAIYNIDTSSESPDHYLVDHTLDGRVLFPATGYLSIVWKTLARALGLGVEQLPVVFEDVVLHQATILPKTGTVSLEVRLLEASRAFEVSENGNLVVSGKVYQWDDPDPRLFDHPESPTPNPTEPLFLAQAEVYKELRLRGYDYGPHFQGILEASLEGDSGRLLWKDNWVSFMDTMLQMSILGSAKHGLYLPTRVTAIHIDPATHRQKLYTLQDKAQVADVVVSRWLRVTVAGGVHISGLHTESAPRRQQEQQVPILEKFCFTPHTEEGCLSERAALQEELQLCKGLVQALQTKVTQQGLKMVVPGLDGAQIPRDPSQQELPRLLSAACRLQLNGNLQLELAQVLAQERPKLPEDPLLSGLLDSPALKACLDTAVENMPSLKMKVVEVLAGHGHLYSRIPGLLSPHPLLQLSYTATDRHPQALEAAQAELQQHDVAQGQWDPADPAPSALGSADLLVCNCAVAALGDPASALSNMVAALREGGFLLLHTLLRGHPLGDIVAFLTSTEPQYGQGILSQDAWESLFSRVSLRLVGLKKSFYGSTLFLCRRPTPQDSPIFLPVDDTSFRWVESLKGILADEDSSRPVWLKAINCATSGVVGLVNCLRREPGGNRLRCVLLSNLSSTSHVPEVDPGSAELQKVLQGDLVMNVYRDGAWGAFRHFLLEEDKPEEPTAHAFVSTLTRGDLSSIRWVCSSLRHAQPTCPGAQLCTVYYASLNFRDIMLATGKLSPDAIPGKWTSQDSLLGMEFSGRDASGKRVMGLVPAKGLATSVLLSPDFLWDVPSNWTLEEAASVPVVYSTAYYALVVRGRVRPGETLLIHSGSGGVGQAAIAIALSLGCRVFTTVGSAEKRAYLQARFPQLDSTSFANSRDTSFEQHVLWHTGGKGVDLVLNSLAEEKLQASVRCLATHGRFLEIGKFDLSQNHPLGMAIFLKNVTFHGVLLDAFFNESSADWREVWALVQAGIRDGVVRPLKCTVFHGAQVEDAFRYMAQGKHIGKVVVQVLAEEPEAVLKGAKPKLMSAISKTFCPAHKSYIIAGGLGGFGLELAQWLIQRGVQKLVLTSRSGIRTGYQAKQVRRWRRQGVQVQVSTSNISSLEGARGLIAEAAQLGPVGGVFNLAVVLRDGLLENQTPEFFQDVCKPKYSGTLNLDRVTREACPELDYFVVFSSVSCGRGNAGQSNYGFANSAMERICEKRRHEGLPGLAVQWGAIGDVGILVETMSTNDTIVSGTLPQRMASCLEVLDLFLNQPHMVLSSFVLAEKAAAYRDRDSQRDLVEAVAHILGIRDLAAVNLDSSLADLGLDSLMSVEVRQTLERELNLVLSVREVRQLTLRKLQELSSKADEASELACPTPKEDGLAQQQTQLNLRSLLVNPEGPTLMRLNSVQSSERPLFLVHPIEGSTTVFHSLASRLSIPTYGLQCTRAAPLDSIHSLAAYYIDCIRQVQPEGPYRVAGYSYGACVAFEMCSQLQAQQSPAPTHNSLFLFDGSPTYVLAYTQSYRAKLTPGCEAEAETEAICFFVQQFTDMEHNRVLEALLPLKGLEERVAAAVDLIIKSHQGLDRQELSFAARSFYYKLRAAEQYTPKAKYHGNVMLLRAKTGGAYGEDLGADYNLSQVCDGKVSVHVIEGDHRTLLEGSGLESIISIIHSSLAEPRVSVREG
T1 sequence (P19096 whole entry): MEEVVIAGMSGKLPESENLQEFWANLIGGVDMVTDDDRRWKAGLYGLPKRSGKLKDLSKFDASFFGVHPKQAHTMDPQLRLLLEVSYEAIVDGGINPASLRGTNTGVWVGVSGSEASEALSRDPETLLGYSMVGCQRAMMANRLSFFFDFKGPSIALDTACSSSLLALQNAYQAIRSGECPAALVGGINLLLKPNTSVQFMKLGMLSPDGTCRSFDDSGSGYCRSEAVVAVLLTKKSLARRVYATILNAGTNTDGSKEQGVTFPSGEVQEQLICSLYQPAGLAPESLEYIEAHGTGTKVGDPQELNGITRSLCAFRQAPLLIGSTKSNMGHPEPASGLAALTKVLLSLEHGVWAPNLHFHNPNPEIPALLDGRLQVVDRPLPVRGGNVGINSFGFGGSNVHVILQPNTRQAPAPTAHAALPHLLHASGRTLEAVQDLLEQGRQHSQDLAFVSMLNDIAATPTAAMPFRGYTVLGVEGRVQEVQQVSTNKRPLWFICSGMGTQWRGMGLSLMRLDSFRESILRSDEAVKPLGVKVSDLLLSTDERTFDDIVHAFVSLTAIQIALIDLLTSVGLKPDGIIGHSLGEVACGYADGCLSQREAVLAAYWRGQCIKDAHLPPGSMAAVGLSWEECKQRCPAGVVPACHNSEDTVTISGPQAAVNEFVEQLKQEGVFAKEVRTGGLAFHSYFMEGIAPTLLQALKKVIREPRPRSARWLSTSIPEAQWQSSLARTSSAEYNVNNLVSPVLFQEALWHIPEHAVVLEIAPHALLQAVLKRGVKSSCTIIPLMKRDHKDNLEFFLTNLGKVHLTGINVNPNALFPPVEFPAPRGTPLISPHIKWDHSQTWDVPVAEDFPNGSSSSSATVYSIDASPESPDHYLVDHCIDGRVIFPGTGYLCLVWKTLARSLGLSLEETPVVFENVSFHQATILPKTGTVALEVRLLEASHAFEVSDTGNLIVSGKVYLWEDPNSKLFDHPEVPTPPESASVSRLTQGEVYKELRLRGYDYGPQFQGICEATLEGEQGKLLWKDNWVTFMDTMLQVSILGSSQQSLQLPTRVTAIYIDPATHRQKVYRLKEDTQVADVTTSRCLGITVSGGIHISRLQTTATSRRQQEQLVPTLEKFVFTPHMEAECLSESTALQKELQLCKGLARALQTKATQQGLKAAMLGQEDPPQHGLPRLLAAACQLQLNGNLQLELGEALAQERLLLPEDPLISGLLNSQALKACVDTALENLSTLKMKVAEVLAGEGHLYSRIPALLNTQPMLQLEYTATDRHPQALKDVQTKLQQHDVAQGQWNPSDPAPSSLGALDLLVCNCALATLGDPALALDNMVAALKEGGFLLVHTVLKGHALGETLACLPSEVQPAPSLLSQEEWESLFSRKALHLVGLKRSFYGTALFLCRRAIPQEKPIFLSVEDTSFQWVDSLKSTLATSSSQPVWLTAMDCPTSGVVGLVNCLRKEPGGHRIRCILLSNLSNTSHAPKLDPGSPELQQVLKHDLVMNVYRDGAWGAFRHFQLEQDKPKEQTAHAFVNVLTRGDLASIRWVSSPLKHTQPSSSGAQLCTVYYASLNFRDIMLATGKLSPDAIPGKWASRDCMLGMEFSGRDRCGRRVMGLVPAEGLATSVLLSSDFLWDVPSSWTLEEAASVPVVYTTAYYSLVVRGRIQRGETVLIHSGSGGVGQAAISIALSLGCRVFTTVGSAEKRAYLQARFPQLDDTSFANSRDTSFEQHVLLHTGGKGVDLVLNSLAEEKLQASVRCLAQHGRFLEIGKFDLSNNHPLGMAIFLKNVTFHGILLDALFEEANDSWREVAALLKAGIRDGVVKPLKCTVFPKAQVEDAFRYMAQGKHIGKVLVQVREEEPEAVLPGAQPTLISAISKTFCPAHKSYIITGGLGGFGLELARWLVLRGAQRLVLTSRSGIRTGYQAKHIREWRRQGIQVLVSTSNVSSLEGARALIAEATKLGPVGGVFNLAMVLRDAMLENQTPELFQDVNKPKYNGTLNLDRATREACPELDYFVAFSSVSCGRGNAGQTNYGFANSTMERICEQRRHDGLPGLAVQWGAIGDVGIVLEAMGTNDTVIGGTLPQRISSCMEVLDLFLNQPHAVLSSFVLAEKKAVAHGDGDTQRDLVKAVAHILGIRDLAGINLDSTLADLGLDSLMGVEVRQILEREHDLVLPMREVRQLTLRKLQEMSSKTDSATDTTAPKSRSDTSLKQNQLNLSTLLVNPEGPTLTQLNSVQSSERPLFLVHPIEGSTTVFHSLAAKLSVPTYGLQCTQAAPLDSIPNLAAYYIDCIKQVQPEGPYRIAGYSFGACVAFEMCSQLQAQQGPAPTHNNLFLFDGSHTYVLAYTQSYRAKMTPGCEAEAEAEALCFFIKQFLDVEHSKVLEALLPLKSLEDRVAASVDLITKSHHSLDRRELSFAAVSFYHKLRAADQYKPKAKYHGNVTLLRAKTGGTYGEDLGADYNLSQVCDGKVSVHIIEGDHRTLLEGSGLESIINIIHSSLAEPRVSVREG

C=C1C(=O)OC(CCCCCCCC)C1C(=O)O (stereo not shown) [C75]
levels of reduction of the FAS enzyme activity, C75 compared with AIM (FAS [1]): almost the same
amount of neuropeptide Y (NPY) produced in the hypothalamus (mice): reduces
appetite (mice): remarkable loss of appetite
body weight (mice): body weight loss; also recorded: totally accelerated

B1: human AIM: protein consisting of the amino acid sequence shown in SEQ ID NO: 1; recombinant, purified from HEK293T culture supernatant (protein)
chain: MALLFSLILAICTRPGFLASPSGVRLVGGLHRCEGRVEVEQKGQWGTVCDDGWDIKDVAVLCRELGCGAASGTPSGILYEPPAEKEQKVLIQSVSCTGTEDTLAQCEQEEVYDCSHDEDAGASCENPESSFSPVPEGVRLADGPGHCKGRVEVKHQNQWYTVCQTGWSLRAAKVVCRQLGCGRAVLTQKRCNKHAYGRKPIWLSQMSCSGREATLQDCPSGPWGKNTCNHDEDTWVECEDPFDLRLVGGDNLCSGRLEVLHKGVWGSVCDDNWGEKEDQVVCKQLGCGKSLSPSFRDRKCYGPGVGRIWLDNVRCSGEEQSLEQCQHRFWGFHDCTHQEDVAVICSG
modifications: human
notes: recombinant, purified from HEK293T culture supernatant
differentiation of 3T3-L1 cells derived from mice / differentiation inhibitory function (3T3-L1 preadipocytes): inhibited; also recorded: similarly exerted
lipolysis induction function in adipocytes derived from mice [2]: similarly exerted
differentiation of HMSCs ([3]; rhAIM 10 μg/mL during 3 days adipogenesis induction, oil-red-o): dramatically inhibited
mRNA level of Glut-4 ([3]; rhAIM 10 μg/mL, RT-PCR, compared with absence of rhAIM): remarkably decreased

B2: HA-AIM: AIM (mouse AIM) fused with an HA-tag (protein)
chain: ESPTKVQLVGGAHRCEGRVEVEHNGQWGTVCDDGWDRRDVAVVCRELNCGAVIQTPRGASYQPPASEQRVLIQGVDCNGTEDTLAQCELNYYVFDCSHEEDAGAQCENPDSDLLFIPEDVRLVDGPGHCQGRVEVLHQSQWSTVCKAGWNLQVSKVVCRQLGCGRALLTYGSCNKNTQGKGPIWMGKMSCSGQEANLRSCLLSRLENNCTHGEDTWMECEDPFELKLVGGDTPCSGRLEVLHKGSWGSVCDDNWGEKEDQVVCKQLGCGKSLHPSPKTRKIYGPGAGRIWLDDVNCSGKEQSLEFCRHRLWGYHDCTHKEDVEVICTDFDV
modifications: left off: small tags and cut ends
notes: AIM (mouse AIM) fused with an HA-tag
co-precipitation with FLAG-tagged FAS (FAS [4]): co-precipitation
co-precipitation with FLAG-tagged FAS (FAS [4]; listed as mouse AIM tagged with HA): co-precipitated mutually
